The target in experiment [1] is Dengue serotype 3 VLP (The Native Antigen Company), wild type (dengue virus serotype 3). Briefly: competition ELISA on VLP, unlabelled 4G2 at 10 micrograms per ml against biotinylated 4G2.
Experiment [2] addresses wild type dengue serotype 4 exodomain (The Native Antigen Company DENV4-ENV) (dengue virus serotype 4). Briefly: ELISA, His-tagged exodomain captured by anti-His-tag antibody, 4G2 titrated (FIG. 5a). (ELISA stands for enzyme-linked immunosorbent assay.)
For experiment [3], the target named is wild type dengue serotype 2 exodomain, HEK293-produced (The Native Antigen Company DENV2-ENV) (dengue virus serotype 2). The experiment is described as above.

The values that follow come from US20190300580A1.

A word on the % inhibition: it is the percentage by which the read-out fell short of the control. Higher therefore signals strong suppression.

Substance “fusion-loop antibody 4G2 (The Native Antigen Company AbFLAVENV-4G2)” had a % inhibition in experiment [1] of 80%. Also, the low antibody concentration still giving a signal above background in experiment [2] and in experiment [3] was 250 pg/mL in each case.
